Measurements: patent US20020161201A1

Target: bovine submaxillary mucin type I (bovine)
Experiment: competition ELISA with biotinylated CC49 SCA, mucin

Row | Substance | Kd [nM]
1 | biotinylated CC49 SCA (scFv) | 6.2
2 | non-PEGylated CC49 SCA (Native-CC49) (scFv) | 3.6
